Columns and labels:
[1] = target: sperm immobilization factor (SIF) from Staphylococcus aureus (Staphylococcus aureus)
[2] = target: SIF-binding receptor from Proteus mirabilis (PM-SBR) (Proteus mirabilis); experiment: ITC; SIF (500 μg/ml) in the syringe, 10 μl injections into PM-SBR (200 μg/ml) in the vial, PBS as reference, 37°C, stirring 200 rpm, 800 s between injections; micro reaction calorimeter

| Substance | motility of mouse spermatozoa exposed for 20 seconds to SIF (70 μg) pre-incubated with PM-SBR (10-200 μg): amount of PM-SBR that alleviated the immobilization [1] | viability of mouse spermatozoa (eosin staining) with SIF (150 μg) pre-incubated with PM-SBR (50-300 μg): minimum effective concentration (MEC) of PM-SBR reducing sperm mortality caused by SIF [1] | Ka [2] | dH [2] |
| --- | --- | --- | --- | --- |
| SIF-binding receptor from Proteus mirabilis (PM-SBR) (natural protein) | 130 µg | 270 µg | – | – |
| sperm immobilization factor (SIF) from Staphylococcus aureus (natural protein) | – | – | 1220 M⁻¹ | 2.29 kcal/mol |
